This is an account of results in article PMC11283454.

The subject of the series is hATE1 WT (human). The series can be described thus: EMSA. (In general: Mobility shift assays separate free from complexed probe on a gel.)

For the substance tRNAArg acceptor arm, the Kd worked out at 1.6 µM.

The term Kd denotes the equilibrium constant for the complex coming apart. Read a high Kd as a looser complex.
